# B1: SARS 3C-like proteinase (SARS-3CLpro), wild type (enzyme)
# chain: SGFRKMAFPSGKVEGCMVQVTCGTTTLNGLWLDDTVYCPRHVICTAEDMLNPNYEDLLIRKSNHSFLVQAGNVQLRVIGHSMQNCLLRLKVDTSNPKTPKYKFVRIQPGQTFSVLACYNGSPSGVYQCAMRPNHTIKGSFLNGSCGSVGFNIDYDCVSFCYMHHMELPTGVHAGTDLEGKFYGPFVDRQTAQAAGTDTTITLNVLAWLYAAVINGDRWFLNRFTTTLNDFNLVAMKYNYEPLTQDHVDILGPLSAQTGIAVLDMCAALKELLQNGMNGRTILGSTILEDEFTPFDVVRQCSGVTFQ
# Molecular target: the molecule itself
# Assay: AUC
protein,measurement,value
B1,stoichiometry N,2
